Target: T1, RecO (UniProt P0A7H3 1-242)
T1 construct: RecO recombination mediator protein; source: purified as previously described (Kantake et al., 2002)
T1 sequence (looked up): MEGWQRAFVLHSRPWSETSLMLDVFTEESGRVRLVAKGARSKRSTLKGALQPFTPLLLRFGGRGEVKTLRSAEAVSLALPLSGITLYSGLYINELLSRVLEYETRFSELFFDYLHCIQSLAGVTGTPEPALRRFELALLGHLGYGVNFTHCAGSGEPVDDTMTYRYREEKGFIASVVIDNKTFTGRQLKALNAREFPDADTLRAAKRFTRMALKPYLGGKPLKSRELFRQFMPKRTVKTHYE
Assay: magnetic tweezers force spectroscopy; single tethered ssDNA; added in turn: 100 mM NaOAc and 1 mM Mg(OAc)2, 200 nM SSB, 100 nM RecO, 1 μM RecR; 20 mM TrisOAc pH 8.0, 50 mM DTT; 25°C
Conditions: both partners purified

B1: RecR (natural protein, UniProt P0A7H6 1-201, looked up)
chain: MQTSPLLTQLMEALRCLPGVGPKSAQRMAFTLLQRDRSGGMRLAQALTRAMSEIGHCADCRTFTEQEVCNICSNPRRQENGQICVVESPADIYAIEQTGQFSGRYFVLMGHLSPLDGIGPDDIGLDRLEQRLAEEKITEVILATNPTVEGEATANYIAELCAQYDVEASRIAHGVPVGGELEMVDGTTLSHSLAGRHKIRF
notes: RecR recombination protein; It cites other work for RecR dimers/tetramers; source: purified as previously described (Kantake et al., 2002)
- binding result: binds

— paper PMC4652220, “Imaging and energetics of single SSB-ssDNA molecules reveal intramolecular condensation and insight into RecOR function” (eLife, 2015)
